The text below walks through data of paper PMC8852740, “Neutralization of Typhoid Toxin by Alpaca-Derived, Single-Domain Antibodies Targeting the PltB and CdtB Subunits” (Infection and Immunity, 2021).

Where two headings read alike, the source gives them in different places.

Assay [1] has as its target T1, PltB homopentamer, biotinylated (Salmonella enterica serovar Typhi; …, UniProt Q8Z6A3, biotinylated with EZ-link NHS-Biotin (sites not given)).
Assay [2] concerns the target T1, PltB homopentamer, biotinylated. In words: ELISA; […] (30 min, 37°C) […]. The settings on record: both partners purified. For orientation: ELISA stands for enzyme-linked immunosorbent assay.

B1: T2C5 (VHH)
VHH: QVQLVETGGGLVQPGGSLRLSCATSGFTFSSTTMTWVRQAPGKGLEWLSGIYSDGRTEYADSVKGRFTISRDNAKNTLYLEMNSLKPEDTAVYFCAKGLLGAERGQGTRVTVSS
Take B1: in assay [1], the binding result is listed as “binds”.

B2: T2F7 (VHH)
VHH: QVQLVESGGGLVQPGGSLRLSCAASGFDFSRSTLSWVRQSPGKDFEWVSDINSGSTLTNYGDSVKGRFTTSRDNAKNTLYLQMNSLKPEDTAVYYCVKGMWITRDQPRGQGTQVTVSS
notes: also called anti-PltB VHH T2F7; source: E. coli Rosetta-gami 2(DE3)pLacI, pET32b+, purified (Ni-NTA)
Turning to B2, the binding result in assay [2] is reported as “binds”.

B3: T2H3 (VHH)
VHH: QVQLAESGGGLVQAGGSLRLSCVASGRTFDINTMAWYRQAPGKQRDFVASSYHGGITNYADSVKGRFTMSRDNAKNTVYLQMNSLKPEDTGVYYCTWRGGGVYWGQGTQVTVSS
As to B3, the binding result in assay [1] is given as “binds”.

B4: T2G11 (VHH)
VHH: QVQLVETGGLVQAGGSLSLSCAVSGRTFNLLHLAWFRQAPGNERDLVASISGSLGSVYYADSVRGRFTISRDAANNTVYLQMNSLKLEDTAVYYCAGAPIFDRFSSSSSSYDYWGQGTQVTVSS
notes: also called anti-PltB VHH T2G11; source: E. coli Rosetta-gami 2(DE3)pLacI, pET32b+, purified (Ni-NTA)
For B4, the binding result in assay [2] was “binds”.

B5: T2C1 (VHH)
VHH: QVQLVETGGGLVQAGGSLRLSCAASGRTFSGDAMGWFRQAPGKEREFVAAISWNGGSTDYADSVKGRFTISRDAKNTVYLQMNSLKPEDTAVYYCASSREDYGSSFLRGSYDYLGQGTQVTVSS
As to B5, the binding result in assay [1] was “binds”.

B6: T2C7 (VHH)
VHH: QLQLAESGGGLVQAGGSLRLSCVVSGRTDSSYAVGWFRQAPGKEREFVAAIMWSGISTYYADSVKGRFTISLDNAKSTVYVQMNSLKPEDTAVYYCAAWKGATVTDDDPWGQGTQVTVSS
Consider B6, for which the binding result in assay [1] is listed as “binds”.

B7: T2D9 (VHH)
VHH: QLQLVESGGGLVQPGGSLRLSCVLSGSDLAYYNVGWFRQAPGKEREGVACTSRVSDTKYYADSVKARFTVARDNAKNTVNLQMSSLRPEDTAVYSCALLRWCTTEDSDSEGMGHWGKGTLVTVSS
Consider B7, for which, in assay [1], the binding result is “binds”.

B8: T2F11 (VHH)
VHH: QVQLVETGGGLVQPGGSLRLSCVLSGSDLAYYNVGWFRQAPGKEREGVACTSRVSDTKYYADSVKARFTVARDNAKNTVNLQMNSLRPEDTAVYSCALLRWCTTEGSDSEGMGHWGKGTLVTVSS
notes: also called anti-PltB VHH T2F11; source: E. coli Rosetta-gami 2(DE3)pLacI, pET32b+, purified (Ni-NTA)
B8: in assay [2], the binding result was “binds”.

B9: T2D2 (VHH)
VHH: QVQLAETGGGLVQPGGSLRLSCAASGFDFSRSTMSWVRQAPGKNIEWVSDINSGGGLTNYGDTVKDRFTISRDNAKNTLYLQMNSLDVEDTAVYYCVKGMWITSDQPRGQGTQVTVSS
Turning to B9, the binding result in assay [1] is given as “binds”.

B10: T2E11 (VHH)
VHH: QLQLVETGGGLVQPGGSLRLSCAASGFSLDYYAIGWFRQAPGKEREGVGCISSSGSTTKYADSVKGRFTISRDNAKNTVYLQMNSLKPEDTAVYYCAARNPADLNCGAYVLNGEYWGQGTQVTVPS
In the case of B10, the binding result in assay [1] is on record as “binds”.

B11: T2B6 (VHH)
VHH: QLQLAESGGGLVQAGDSLRLSCADSGRTFSDYAMGWFRQAPGKEREFVAAISWNGRSTYYIEAVKDRFTISRDNAKKTLYLQMNSLKPEDTAVYYCAAAREDYGSSLVKGSADYWGQGTQVTVSS
As for B11, in assay [1], the binding result is listed as “binds”.

B12: T2B2 (VHH)
VHH: QLQLAESGGGLVQAGGSLRLSCAASGRTFNTLHLAWFRQAPGNERDFVASISGSLGSLHYADSVKGRFTISRDNANNTVYLQMNSLKLEDTAVYYCAGAPIYDRFSSSSSSYDYWGQGTQVTVSS
Take B12: the binding result in assay [1] is reported as “binds”.

B13: T2G6 (VHH)
VHH: QVQLVESGGGLVQAGGSLRLSCAASGFTFDDYAIGWFRQAPGKEREMILCINSRSGSTSYYADSVKGRFTVSVNSAKNTAYLQMNSLKPEDTAVYYCAADVTHPHSCNALDAWGQGTLVTVSS
B13: in assay [1], the binding result is recorded as “binds”.

B14: T2G7 (VHH)
VHH: QVQLVESGGGSVQAGGSLRLSCAASGFTFDDYAIGWFRQAPGKEREMILCINSRAGMTSYSADSVKGRFTVSVNSAKNTAYLQMNSLKPEDTAKYYCAADVTHPHSCNALDAWGQGTLVTVSS
On to B14, for which the binding result in assay [1] is recorded as “binds”.

B15: T2H1 (VHH)
VHH: QVQLVESGGGLVQAGGSLRLSCAASGFTFDDYAIGWFRQAPGKEREQILCINSNRARTSYYAESIKGRFTVSVNSAKNTVYLQMNSLKPEDTAVYYCAADVTHPHSCNALDAWGQGTLVTVSS
With B15, the binding result in assay [1] was “binds”.

B16: T2H5 (VHH)
VHH: QVQLVETGGGLVQAGGSLRLSCTASGFTFDEYAIGWFRQAPGKEREMILCISSVGGSTYYADSVKGRFTISSDNAKNTMYLQMSSLKPEDTAKYYCAVDVTPPHSCNALDTWGQGTLVTVSS
In the case of B16, the binding result in assay [1] was “binds”.

B17: T2G4 (VHH)
VHH: QVQLVESGGGSLRLSCAVFGRTFSGDAVGWFRQAPGKEREFVAAINWNGRSTDYADSVKGRFTISRDDTENTVYLQMNSLKPEDTAVYYCATSREDYGSSFLRGSYDYLGQGTQVTVSS
notes: also called anti-PltB VHH T2G4; source: E. coli Rosetta-gami 2(DE3)pLacI, pET32b+, purified (Ni-NTA)
For the molecule B17, the binding result in assay [2] is listed as “binds”.

B18: T2B4 (VHH)
VHH: QVQLVETGGALVQTGGSLRLSCAVSGRSSSTQGLGWYRQAPGKEREFVATINWISGATYYSDSVKGRFSISRDNAENTVSLQMHDLKPDDTAVYYCGAGLSPIARMDYWGQGTQVTVSS
With B18, in assay [1], the binding result is on record as “binds”.

B19: T2F3 (VHH)
VHH: QVQLAETGGALVQTGGSLRLSCAVSGRNSEIQGLGWYRQAPGKEREFVATINWRSGATYYDDSVKGRFSISRDNAENTVSLQMNDLKPDDTAVYYCGAGMSPIARMDYWGQGTQVTVSS
notes: also called anti-PltB VHH T2F3; source: E. coli Rosetta-gami 2(DE3)pLacI, pET32b+, purified (Ni-NTA)
As for B19, in assay [2], the binding result is recorded as “binds”.

B20: T2B12 (VHH)
VHH: QLQLVESGGGSVQAGGSLRLSCAASGFTFGDYAIAFFRQAPGKEREGVSCISTYDGSTYYGDSVKGRFTISSDNAKNTVYLQMNSLKPEDTAVYYCAADRADCGWYYPYDYWGQGTQVTVSS
As to B20, the binding result in assay [1] is on record as “binds”.

B21: T2E8 (VHH)
VHH: QVQLAESGGGSVQAGGSLRLSCAASGLTFDKYAIGWFRQAPGKGREMVSCINTNYGSTYYADSVKGRFTISSDTAKNTVYLQMNSLSPEDTAVYYCAADTRSSWPSCNALDTWGQGTLVTVSS
For B21, in assay [1], the binding result is reported as “binds”.

B22: T2A3 (VHH)
VHH: QVQLAESGGGLVQAGGSLRLSCAASGLTFDKYAIGWFRQAPGKERELVSCISTNYGSPYYADSVKGRFTISSDNAKNTVYLQMNSLKPEDTAVYYCAADTRSSWPSCNALDARGQGTLVTVSS
In the case of B22, in assay [1], the binding result is given as “binds”.

B23: T2G1 (VHH)
VHH: QVQLAESGGGLVQAGGSLRLSCAASGLTFDKYAIGWFRQAPGKERELVSCISTNYGSTYYADSVKGRFTISTDNAKNTVYLQMNGLKPEDTAVYYCAADTRSSWPSCNALDTWGQGTLVTVSS
notes: also called anti-PltB VHH T2G1; source: E. coli Rosetta-gami 2(DE3)pLacI, pET32b+, purified (Ni-NTA)
For the molecule B23, the binding result in assay [2] is “binds”.

B24: T2D8 (VHH)
VHH: QLQLVESGGGLVQPGGSLRLSCAASGFTLDYYAIGWFRQAPGKEREWVSCLGRSSSSTSYVADSVQGRFTISRDNAKNTVYLQMNSLKPEDTAVYYCAADLSSQISSCNALDTWGQGTLVTVSS
Turning to B24, the binding result in assay [1] is listed as “binds”.

B25: T2F2 (VHH)
VHH: QVQLAESGGGLVQAGGSLRLSCVASGRTFSSYAMGWFRRAPGKEREFVASILWSDGSAAYADSVEGRFTISRDNAKNTVHLQMNSLQPEDTAVYYCAAEARGSGTRWGNEYDYWGQGTQVTVSS
notes: also called anti-PltB VHH T2F2; source: E. coli Rosetta-gami 2(DE3)pLacI, pET32b+, purified (Ni-NTA)
As to B25, the binding result in assay [2] is “binds”.

B26: T2A2 (VHH)
VHH: QVQLAETGGGLVQPGGSLRLSCAVSGFMVNSYDIGWFRQAPGKEREGVSCISSSGGATHYVDSVKGRFTISRDNAKNMVYLQMNSLKPEDTATYYCAANRMTRCSDYHGYPFWGQGTQVTVSS
For the molecule B26, in assay [1], the binding result is reported as “binds”.

B27: T2E12 (VHH)
VHH: QVQLAESGGGLVQAGGSLRLSCAASGFTFDDYAVAWFRQAPGKAREMVLCISSSGGSSYYADFVKGRFTVPSNSAKNTVYLQMNSLKPEDTAKYICAVDATYPHSCNALDAWGQGTLVTVSS
For B27, in assay [1], the binding result is recorded as “binds”.

B28: T2A7 (VHH)
VHH: QVQLVETGGGLVQTGGSLRLSCAASGFTFDDFAIGWFRQAPGKEREWVSCISSRNGSPYYADSVKGRFTISSDNAKNTVYLQMNSLKPEDTAVYYCKADTDSIVPSCNALDTWGQGTLVTVSS
Regarding B28, the binding result in assay [1] is given as “binds”.

B29: T2E1 (VHH)
VHH: QVQLAESGGGFVQAGGSLRLSCVESGRSFSVFAMGWFRQAPGKERELVAAISWRGDSTYYADLVKGRFTISRDNAKNAVYLQMNSLKPEDTAVYYCAADRSDYVVTHEYDYWGQGTQVTISP
notes: also called anti-PltB VHH T2E1; source: E. coli Rosetta-gami 2(DE3)pLacI, pET32b+, purified (Ni-NTA)
B29: in assay [2], the binding result was “binds”.

B30: T2A1 (VHH)
VHH: QVQLVESGGGLVQAGGSLRLTCAGSGRTFSGDVMGWFRQAPGKEREFVAAISYNGGSTYYADSVKGRFTISRDNAKNTVYLQMDGLKPGDTAVYYCASSREDYGSSLAKGSYDYWGQGTQVTVSS
B30: the binding result in assay [1] is “binds”.

B31: T2D10 (VHH)
VHH: QVQLAETGGGLVQAGGSLRLSCAASGLTSSRYAMAWFRQVPGLEREFVASMTGSGGRTFYADSVKGRFTISRDNAKNTVYLQMNNLNPEDTAVYYCAVEYRDSGTRWSNEYDYWGQGTQVTVSS
In the case of B31, the binding result in assay [1] is reported as “binds”.
